Consider twelve molecules from PMC2741138 (Journal of molecular biology, 2008).

B1: ASF(RRM2) (domain or fragment)
chain: NRVVVSGLPPSGSWQDLKDHMREAGDVCYADVYRDGTGVVEFVRKEDMTYAVRKLDNTKFRSHEGETAYIRVKVDGPRSPSYG
B2: (RS)8 (peptide)
chain: RSRSRSRSRSRSRSRS
modifications: Expanded from the printed formula (RS)8; any flanking residues or end caps are not stated
B3: ASF(RRM1) (domain or fragment)
chain: MSGGGVIRGPAGNNDCRIYVGNLPPDIRTKDIEDVFYKYGAIRDIDLKNRRGGPPFAFVEFEDPRDAEDAVYGRDGYDYDGYRLRVEFPRS
B4: (RS)16 (peptide)
chain: RSRSRSRSRSRSRSRSRSRSRSRSRSRSRSRS
modifications: Expanded from the printed formula (RS)16; any flanking residues or end caps are not stated
B5: ASF(ΔRRM12)-His (domain or fragment)
chain: GPRSPSYGRSRSRSRSRSRSRSRSNSRSRSYSPRRSRGSPRYSPRHSRSRSRT
B6: ASF(ΔRRM1)-His (domain or fragment)
chain: GGAPRGRYGPPSRRSENRVVVSGLPPSGSWQDLKDHMREAGDVCYADVYRDGTGVVEFVRKEDMTYAVRKLDNTKFRSHEGETAYIRVKVDGPRSPSYGRSRSRSRSRSRSRSRSNSRSRSYSPRRSRGSPRYSPRHSRSRSRT
B7: ASF(RS12)-His (domain or fragment)
chain: PRSPSYGRSRSRSRSRSRSRSRSNSRSRSYSPRRSRGSPRYSPRHSRSRSRT

Several values for one entry are separate records, joined by “and”; a condition that tells them apart may be missing. Identical values can stand only once.

Sequence of SRPK1 (UniProt Q96SB4) (Q96SB4 whole entry, the tested form may be a part): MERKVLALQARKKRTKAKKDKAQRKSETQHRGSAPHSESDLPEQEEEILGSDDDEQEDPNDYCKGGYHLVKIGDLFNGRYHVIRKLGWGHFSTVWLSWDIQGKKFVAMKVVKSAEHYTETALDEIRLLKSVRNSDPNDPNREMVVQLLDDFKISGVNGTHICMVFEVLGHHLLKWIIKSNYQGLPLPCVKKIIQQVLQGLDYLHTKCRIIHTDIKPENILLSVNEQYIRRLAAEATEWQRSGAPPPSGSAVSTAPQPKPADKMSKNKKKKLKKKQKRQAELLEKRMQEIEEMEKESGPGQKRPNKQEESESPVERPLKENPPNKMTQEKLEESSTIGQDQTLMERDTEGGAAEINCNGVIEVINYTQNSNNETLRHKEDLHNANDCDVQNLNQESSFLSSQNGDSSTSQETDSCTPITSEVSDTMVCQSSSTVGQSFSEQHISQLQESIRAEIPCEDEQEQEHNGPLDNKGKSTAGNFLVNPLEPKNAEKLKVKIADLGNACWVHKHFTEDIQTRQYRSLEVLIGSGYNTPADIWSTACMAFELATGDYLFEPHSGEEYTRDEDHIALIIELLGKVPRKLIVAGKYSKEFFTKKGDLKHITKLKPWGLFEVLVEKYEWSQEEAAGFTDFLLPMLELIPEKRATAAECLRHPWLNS
T1 sequence (Q96SB4 whole entry): as the sequence (Q96SB4 whole entry, the tested form may be a part) above

The first experiment concerns the target SRPK1 (UniProt Q96SB4). Put plainly: kinase competition assay.
“Block 3/4 (from UniProt Q07955 1-248) (natural protein)”: the Ki amounted to 120 nM. Molecule ASF(ΔRS) (domain or fragment) had an inhibitory constant (Ki) of 180 nM. ASF(ΔRS2) (domain or fragment) displayed an inhibition constant (Ki) of 170 nM.

Turning to “Block 1/2 (from UniProt Q07955 1-248) (natural protein)”, the inhibition constant Ki stood at 40 nM. In turn, “Block 2/3 (from UniProt Q07955 1-248) (natural protein)” had a Ki of 45 nM.

A further experiment concerns the target T1, SRPK1 (UniProt Q96SB4 1-655). Put plainly: kinase competition assay.
B1 gave an inhibitory constant (Ki) of 6300 ± 1900 nM. On to B2, for which the inhibition constant (Ki) is 1800 nM and 1600 nM.

For the molecule B3, the Ki stood at 1600 ± 400 nM. B4 had a Ki of 160 ± 41 nM.

For another experiment, the target named is T1, SRPK1. Put plainly: kinase competition assay. This is another data set of the same source.
Molecule B5 had a Ki of 70 ± 15 nM. Turning to B6, affinity was put at a Ki of 54 ± 5 nM. Turning to B7, the affinity, expressed as Ki, was 190 ± 13 nM.

One may read the Ki as a measure of affinity in units of concentration, obtained from inhibition or displacement. A low value points to higher affinity.
